Measured values taken from paper PMC4240464 (The Febs Journal, 2013).
Like-named read-outs stand apart in the source and are kept apart here.

T1: Evasin-4 (untagged recombinant) (Rhipicephalus sanguineus, UniProt P0C8E9 24-127, appears to be highly glycosylated (six putative N-glycosylation sites))
T1 sequence: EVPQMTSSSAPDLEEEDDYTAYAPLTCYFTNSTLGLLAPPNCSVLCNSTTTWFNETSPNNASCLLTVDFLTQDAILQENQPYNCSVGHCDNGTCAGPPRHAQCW

T2: CCL21 (human, UniProt O00585 24-134)
T2 sequence: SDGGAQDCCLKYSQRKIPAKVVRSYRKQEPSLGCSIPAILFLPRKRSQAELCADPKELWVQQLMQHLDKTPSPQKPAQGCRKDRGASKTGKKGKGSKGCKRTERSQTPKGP

T3: CCL25 (human, UniProt O15444 24-150)
T3 sequence: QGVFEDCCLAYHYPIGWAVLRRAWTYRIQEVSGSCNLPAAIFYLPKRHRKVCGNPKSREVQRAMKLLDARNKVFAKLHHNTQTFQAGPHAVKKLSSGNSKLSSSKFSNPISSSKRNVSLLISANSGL

B1: CCL7 (ligand)
chain: not shown
B2: CCL26 (ligand)
chain: TRGSDISKTCCFQYSHKPLPWTWVRSYEFTSNSCSQRAVIFTTKRGKKVCTHPRKKWVQKYISLLKTPKQL
B3: CCL17 (ligand)
chain: ARGTNVGRECCLEYFKGAIPLRKLKTWYQTSEDCSRDAIVFVTVQGRAICSDPNNKRVKNAVKYLQSLERS
B4: CCL1 (ligand)
chain: KSMQVPFSRCCFSFAEQEIPLRAILCYRNTSSICSNEGLIFKLKRGKEACALDTVGWVQRHRKMLRHCPSKRK
B5: CCL15 (ligand)
chain: QFTNDAETELMMSKLPLENPVVLNSFHFAADCCTSYISQSIPCSLMKSYFETSSECSKPGVIFLTKKGRQVCAKPSGPGVQDCMKKLKPYSI
B6: CCL3 (ligand)
chain: SLAADTPTACCFSYTSRQIPQNFIADYFETSSQCSKPGVIFLTKRSRQVCADPSEEWVQKYVSDLELSA
B7: CCL23 (ligand)
chain: RVTKDAETEFMMSKLPLENPVLLDRFHATSADCCISYTPRSIPCSLLESYFETNSECSKPGVIFLTKKGRRFCANPSDKQVQVCMRMLKLDTRIKTRKN
B8: CCL14 (ligand)
chain: TKTESSSRGPYHPSECCFTYTTYKIPRQRIMDYYETNSQCSKPGIVFITKRGHSVCTNPSDKWVQDYIKDMKEN
B9: 6His–Evasin-4 (natural protein)
chain: T1 sequence
B10: CCL19 (ligand)
chain: GTNDAEDCCLSVTQKPIPGYIVRNFHYLLIKDGCRVPAVVFTTLRGRQLCAPPDQPWVERIIQRLQRTSAKMKRRSS
B11: CCL24 (ligand)
chain: VVIPSPCCMFFVSKRIPENRVVSYQLSSRSTCLKAGVIFTTKKGQQFCGDPKQEWVQRYMKNLDAKQKKASPRARAVAVKGPVQRYPGNQTTC
B12: CCL11 (ligand)
chain: not shown
B13: CCL8 (ligand)
chain: QPDSVSIPITCCFNVINRKIPIQRLESYTRITNIQCPKEAVIFKTKRGKEVCADPKERWVRDSMKHLDQIFQNLKP
B14: CCL18 (ligand)
chain: AQVGTNKELCCLVYTSWQIPQKFIVDYSETSPQCPKPGVILLTKRGRQICADPNKKWVQKYISDLKLNA
B15: CCL5 E26A (ligand)
chain: SPYSSDTTPCCFAYIARPLPRAHIKAYFYTSGKCSNPAVVFVTRKNRQVCANPEKKWVREYINSLEMS
B16: CCL22 (ligand)
chain: GPYGANMEDSVCCRDYVRYRLPLRVVKHFYWTSDSCPRPGVVLLTFRDKEICADPRVPWVKMILNKLSQ
B17: CCL16 (ligand)
chain: QPKVPEWVNTPSTCCLKYYEKVLPRRLVVGYRKALNCHLPAIIFVTKRNREVCTNPNDDWVQEYIKDPNLPLLPTRNLSTVKIITAKNGQPQLLNSQ

Key:
Assay in all cases: SPR
6His–Evasin-4 [1] = biological target: B9
6His–Evasin-4 [2] = biological target: B9; remark: listed apart in the source
[3] = biological target: T1, Evasin-4 (untagged recombinant)
CCL21 = biological target: T2, CCL21
CCL25 = biological target: T3, CCL25

Row | Binder | Kd (6His–Evasin-4 [1]) [nM] | koff (6His–Evasin-4 [1]) [s⁻¹] | kon (6His–Evasin-4 [1]) [M⁻¹ s⁻¹] | Kd (6His–Evasin-4 [2]) [nM] | Kd [3] [nM] | Kd (CCL21) [nM] | koff (CCL21) [s⁻¹] | kon (CCL21) [M⁻¹ s⁻¹] | Kd (CCL25) [nM] | koff (CCL25) [s⁻¹] | kon (CCL25) [M⁻¹ s⁻¹]
1 | B1 | 0.7 | 0.00988 | 1.41e+07 | 0.045 |  |  |  |  |  |  | 
2 | B2 | 0.88 | 0.00015 | 170000 | 11.4 |  |  |  |  |  |  | 
3 | B3 | 0.61 | 0.0107 | 1.76e+07 |  | 126 |  |  |  |  |  | 
4 | B4 | 0.2 | 0.00326 | 1.66e+07 | 1.81 | 112 |  |  |  |  |  | 
5 | B5 | 2.31 | 0.0936 | 4.05e+07 | 0.199 | 132 |  |  |  |  |  | 
6 | B6 | 0.06 | 0.00089 | 1.38e+07 | 0.393 | 33.1 |  |  |  |  |  | 
7 | B7 | 4.43 | 3e-05 | 6000 | 10.8 | 14.1 |  |  |  |  |  | 
8 | B8 | 0.14 | 0.00148 | 1.04e+07 |  |  |  |  |  |  |  | 
9 | B9 |  |  |  |  |  | 0.01 | 8e-05 | 1.1e+07 | 69.6 | 0.00054 | 8000
10 | B10 | 0.14 | 0.00035 | 2.57e+06 |  |  |  |  |  |  |  | 
11 | B11 | 0.41 | 0.0125 | 3.05e+07 | 142 |  |  |  |  |  |  | 
12 | B12 | 0.34 | 0.00435 | 1.29e+07 | 0.069 | 128 |  |  |  |  |  | 
13 | B13 | 0.25 | 0.00176 | 7.11e+06 | 0.22 |  |  |  |  |  |  | 
14 | B14 | 0.03 | 0.00053 | 1.96e+07 | 0.198 |  |  |  |  |  |  | 
15 | B15 | 0.09 | 0.00223 | 2.6e+07 | 0.002 | 194 |  |  |  |  |  | 
16 | B16 | 0.43 | 0.0038 | 8.9e+06 |  |  |  |  |  |  |  | 
17 | B17 | 0.26 | 0.00306 | 1.2e+07 |  |  |  |  |  |  |  | 
